Results reported in publication PMC11758712.

Key:
[1] = biological target: Abdala (SARS-CoV-2 spike receptor-binding domain vaccine antigen produced in Pichia pastoris) (SARS-CoV-2 (Wuhan-Hu-1)) (UniProt P0DTC2); assay: mass photometry
[2] = biological target: monomeric ACE2 (a.a 19-611), C-terminally His-tagged (human) (UniProt Q9BYF1); assay: mass photometry
Sequence of monomeric ACE2 (a.a 19-611), C-terminally His-tagged (human) (Q9BYF1 19-611): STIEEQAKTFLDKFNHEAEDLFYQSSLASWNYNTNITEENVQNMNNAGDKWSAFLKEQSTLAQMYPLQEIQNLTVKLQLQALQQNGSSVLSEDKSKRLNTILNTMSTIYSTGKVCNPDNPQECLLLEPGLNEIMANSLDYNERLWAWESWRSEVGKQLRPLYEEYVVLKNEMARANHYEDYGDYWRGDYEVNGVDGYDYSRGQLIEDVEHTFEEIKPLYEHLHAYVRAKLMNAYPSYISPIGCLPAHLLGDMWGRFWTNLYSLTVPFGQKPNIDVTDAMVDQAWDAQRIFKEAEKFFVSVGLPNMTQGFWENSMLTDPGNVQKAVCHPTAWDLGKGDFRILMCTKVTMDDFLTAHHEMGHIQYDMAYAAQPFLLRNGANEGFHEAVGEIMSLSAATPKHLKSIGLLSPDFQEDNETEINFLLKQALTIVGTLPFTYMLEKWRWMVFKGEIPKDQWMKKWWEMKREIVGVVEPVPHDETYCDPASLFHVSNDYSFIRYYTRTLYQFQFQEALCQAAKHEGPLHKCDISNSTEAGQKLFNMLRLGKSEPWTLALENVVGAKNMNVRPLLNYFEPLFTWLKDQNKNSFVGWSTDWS

## Abdala (SARS-CoV-2 spike receptor-binding domain vaccine antigen produced in Pichia pastoris) (from UniProt P0DTC2 319-541) (domain or fragment)
[1]
  percent dimeric species: 5.6%
  stoichiometry N: 2
[2]
  Kd: 55.5 nM
